We go through 1 molecule from paper PMC11096383.

In this experiment the target is G12D (M3D-GPR183/ICL3 F93^1.57V), FLAG-epitope-tagged (human).
Sequence of G12D (M3D-GPR183/ICL3 F93^1.57V), FLAG-epitope-tagged (human) (chain, as listed by the source G12D): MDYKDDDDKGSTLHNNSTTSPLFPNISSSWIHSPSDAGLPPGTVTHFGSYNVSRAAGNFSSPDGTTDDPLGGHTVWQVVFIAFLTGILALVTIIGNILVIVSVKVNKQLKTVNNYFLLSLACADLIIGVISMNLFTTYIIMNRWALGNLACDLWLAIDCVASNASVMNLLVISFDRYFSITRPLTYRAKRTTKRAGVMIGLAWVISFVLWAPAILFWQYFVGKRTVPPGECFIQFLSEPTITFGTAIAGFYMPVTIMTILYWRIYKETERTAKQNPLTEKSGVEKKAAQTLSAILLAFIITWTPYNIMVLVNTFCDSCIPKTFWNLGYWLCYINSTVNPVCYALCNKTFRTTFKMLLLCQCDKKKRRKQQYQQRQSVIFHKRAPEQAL

B1: Gα_(q-12C) (protein)
chain: MTLESIMACCLSEEAKEARRINDEIERQLRRDKRDARRELKLLLLGTGESGKSTFIKQMRIIHGSGYSDEDKRGFTKLVYQNIFTAMQAMIRAMDTLKIPYKYEHNKAHAQLVREVDVEKVSAFENPYVDAIKSLWNDPGIQECYDRRREYQLSDSTKYYLNDLDRVADPAYLPTQQDVLRVRVPTTGIIEYPFDLQSVIFRMVDVGGQRSERRKWIHCFENVTSIMFLVALSEYDQVLVESDNENRMEESKALFRTIITYPWFQNSSVILFLNKKDLLEEKIMYSHLVDYFPEYDGPQRDAQAAREFILKMFVDLNPDSDKIIYSHFTCATDTENVRFVFHAVKDTILQENLKDIMLQ
In the case of B1, the TGFα shedding assay (AP-TGFα release on CNO, concentration-response) in ∆Gq/∆G12 HEK293 cells; relative intrinsic activity (RAi) of Gα (q-12C) against Gα (q-13C) is 4.6 fold.
